Tests used:
Salmonella-infected mice = assay: Salmonella-mediated cecal fibrosis in mice; format: in vivo; conditions: Salmonella model
Experimental: Eight-week-old male and female 129Sv/J mice (#000691, Jackson Laboratories) were administered 20 mg streptomycin via oral gavage. Twenty-four hours later, the mice were orally infected with Salmonella typhimurium SL1344 strain 1×10^8 colony-forming units by oral gavage to induce cecal fibrosis.
Origene or miR205-5p-OFF lentivrus (mm35328) or miR205-5p-OE lentivirus (mm15214) from Applied Biological Materials on day 14. Some infected mice received oral antibiotics mixture in drinking water ad libitum from day 14 to day 21 to suppress intestinal microbiota. […]
H&E and Masson Trichrome (MT) staining were performed as described previously. Microphotographs were recorded at multiple locations and scored by two investigators blindly. Intestinal injuries were scored (0-12). The severity of intestinal fibrosis was assessed by MT staining and scored (0-3). […]
(§1) Total RNA was isolated by an RNeasy kit (#74104, Qiagen) and reverse transcribed into cDNA by a high-capacity cDNA reverse transcription kit (#4368813, ThermoFisher). […] Relative mRNA/miRNA quantification was performed by comparing test groups and control groups after normalization with endogenous control genes. The fold changes are expressed as 2^ΔΔCt. […]
Overall disease activity (ODA) was calculated by % change of histology and fibrosis scores and colonic mRNA expression of fibrosis- and inflammation-related genes. […]

SAMP1/YitFc mice = assay: Spontaneous ileal fibrosis in SAMP1/YitFc mice; format: in vivo; conditions: SAMP1/YitFc model
Experimental: Eight-week-old male and female SAMP1/YitFc mice (#009355) and normal AKR strain control mice (#000648) were purchased from Jackson Laboratories. SAMP1/YitFc mice developed spontaneous ileal inflammation and fibrosis at 40 weeks of age.
Some groups were treated with antibiotics mixture in drinking water ad libitum from 10 to 42 weeks of age. Others received a single intraperitoneal injection (1×10^7 infectious units/mouse) of either control lentivirus or elafin-expressing lentivirus (RC203136L1V, Origene) at 40-weeks of age. Ileal tissues were collected for analysis two weeks after the lentiviral injection.
H&E and Masson Trichrome (MT) staining were performed as described previously. Microphotographs were recorded at multiple locations and scored by two investigators blindly. Intestinal injuries were scored (0-12). The severity of intestinal fibrosis was assessed by MT staining and scored (0-3). ZEB1 immunohistochemistry was performed using an anti-ZEB1 antibody (HPA027524, Sigma).
as §1

CD patient-derived PBMCs = assay: Cytokine multiplex assay in serum exosome-preconditioned CD PBMCs; format: cell-based, human; conditions: CDSE-preconditioned CD PBMCs; 1 μg/ml elafin 6 hours
Experimental: FIG. 30. Cytokine levels in mouse and human sera and CD-PBMCs. (A) Mouse serum cytokine levels were measured by a 23-plex multiplex assay (#M60009RDPD, Bio-Rad). n=5 mice per group. (B) Human serum cytokines were measured by a 27-plex multiplex assay (#M500KCAFOY, Bio-rad). 12 normal, 23 UC, and 43 CD patients. (C) CD patient-derived PBMCs were preconditioned with stricturing CD patient (CDS) or non-stricturing CD patient (CDNS)-derived serum exosomes for two hours, followed by exposure to either 0.1% TFA or 1 μg/ml elafin for 6 hours. The cell supernatants were collected for a 13-plex cytokine multiplex assay (HSTCMAG28SPMX13, Millipore Sigma). (D) A comparison of cytokine levels in mouse sera, human sera, and conditioned media of CDS and CDNS serum exosome-conditioned CD-PBMCs. ns=no significant difference. ND=below detection range. N/A=unavailable. Mo=monocytes. MO=macrophages, DC=dendritic cells.
CD PBMCs (#70052, […] Technologies) were cultured in RPMI1640 media containing 10% exosome-depleted fetal bovine serum (A2720803, ThermoFisher) and 1% penicillin-streptomycin. Some groups were conditioned with 100 μg/ml of human serum exosomes from either CDSE or non-stricturing CD (CDNSE) patients to mimic the CD chemical environment for two hours, followed by addition with either 0.1% TFA or 1 μg/ml elafin. […]

[1] = system: mouse RAW264.7 macrophages; assay: TNFα secretion in RAW264.7 macrophages; format: cell-based; conditions: elafin 10-1000 ng/ml, 6 h
Experimental: Mouse RAW264.7 macrophages (#TIB-71, ATCC) were cultured in Dulbecco's modified Eagle's medium (DMEM) (#11965-084, ThermoFisher) with 10% fetal bovine serum (FBS) (#10437-028, Life Technologies) and 1% penicillin/streptomycin/glutamine (P/S/G) (#10378-016, Life Technologies) mixture. The macrophages were serum-starved overnight, followed by exposure to fatty acid-free bovine serum albumin (BSA) (A7030, Sigma), sodium palmitate (P9767, Sigma), or lipopolysaccharide (LPS) (L5418, Sigma) for 2 h, and then the addition of elafin (10-1000 ng/ml) for additional 6 h. The cell-conditioned media were used for mouse TNFα ELISA (DY410, R&D Systems).

Elafin: small (6 kDa) human elastase-specific protease inhibitor and antimicrobial peptide; active form SEQ ID NO: 2 (AQEPVKGPVSTKPGSCPIILIRCAMLNPPNRCLKDTDCPGIKKCCEGSCGMACFVPQ; listed as Homo sapiens)
overall disease activity (Salmonella-infected mice): 29%
overall disease activity (SAMP1/YitFc mice): 7%
T-cell cytokine secretion (CD patient-derived PBMCs): did not affect
LPS- and palmitate-induced TNFα secretion [1]: did not affect

Reference: US20230405078A1, “DETECTION AND TREATMENT OF INTESTINAL FIBROSIS” (THE REGENTS OF THE UNIVERSITY OF CALIFORNIA, priority 2020, published 2023)
